Values joined by “and” are separate entries in the source; they are usually repeats but may differ in a detail not shown here. Equal values may be shown once. Where no end group is shown, it is not given here. The star is where a group is joined. Biotin = O=C1N[C@H]2[C@H](CS[C@H]2CCCCC(=O)*)N1
How the values were obtained:
[1] = target: T1, recombinant human CD276-ECD protein (human, UniProt Q5ZPR3 29-255); experiment: indirect ELISA, plate coated with human CD276-ECD
T1 construct: Purchased from Acro BIOSYSTEMS; Used native (ELISA) and reduced and denatured (Western blot); also called B7-H3
T1 sequence: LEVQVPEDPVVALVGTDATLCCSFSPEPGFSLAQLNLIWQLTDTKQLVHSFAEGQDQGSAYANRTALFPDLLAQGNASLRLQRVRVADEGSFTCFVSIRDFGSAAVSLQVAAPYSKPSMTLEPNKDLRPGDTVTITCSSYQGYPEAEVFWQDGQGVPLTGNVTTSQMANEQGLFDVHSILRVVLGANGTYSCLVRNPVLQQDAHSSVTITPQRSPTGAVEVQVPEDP

[2] = target: T2, biotinylated human CD122/132 (human, UniProt P14784 27-239; P31785 23-254, limits assumed, biotinylated (site not stated)); experiment: sandwich ELISA: antibody on coated human CD276-ECD, biotinylated CD122/132 detected with SA-HRP
T2 construct: Bought heterodimeric reagent; also called CD122/CD132
T2 sequence (looked up) 1: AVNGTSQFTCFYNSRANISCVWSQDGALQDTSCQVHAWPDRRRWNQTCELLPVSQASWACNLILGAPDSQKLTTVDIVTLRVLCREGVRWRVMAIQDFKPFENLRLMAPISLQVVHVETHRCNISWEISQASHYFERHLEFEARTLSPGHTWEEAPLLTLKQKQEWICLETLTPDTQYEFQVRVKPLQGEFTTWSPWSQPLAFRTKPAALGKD
T2 sequence (looked up) 2: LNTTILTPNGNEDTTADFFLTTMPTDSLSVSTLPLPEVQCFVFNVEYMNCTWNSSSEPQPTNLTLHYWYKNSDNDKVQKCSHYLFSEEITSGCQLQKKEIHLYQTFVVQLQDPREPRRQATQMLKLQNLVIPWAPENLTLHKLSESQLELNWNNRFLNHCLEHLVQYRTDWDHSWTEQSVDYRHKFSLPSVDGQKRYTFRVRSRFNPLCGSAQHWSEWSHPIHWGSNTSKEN
Procedure: The method was as follows: The plates were pre-coated with human CD276-ECD protein diluted to 2 μg/mL in the coating solution (50 mM carbonate coating buffer, pH 9.6) and incubated at 4° C. overnight. The plates were then blocked with 5% skim milk powder at 37° C. for 2 hours. Afterward, the plates were washed 3 times with PBST, and the to-be-tested antibody, diluted in 1% BSA-PBST at various gradients, was added to the blocked plates at 100 μL per well. The plates were incubated at 37° C. for 1 hour. […] Following 3 additional washes with PBST, diluted HRP-conjugated streptavidin (SA) (purchased from Pierce) was added, and the plates were incubated at 37° C. for 30 minutes. After 3 more washes with PBST, residual droplets were removed by blotting on absorbent paper. Then, 100 μL of TMB substrate (purchased from KPL) was added to each well, and the plates were incubated at room temperature (20±5° C.) in the dark for 5 minutes.
As a control, hu147 could bind to CD276 (as shown in Embodiment 8), but not CD122/CD132.

C2-type 1-Fc = target: T3, C2-type 1-Fc (human); experiment: Western blot on Fc fusion proteins of the domains
T3 construct: Expressed in Expi-293F cells, purified on Protein A, tested by Western blot; also called Ig-like C2-type 1 (Domain 2) of human CD276-ECD linked to human Fc; second functional domain of human CD276-ECD
T3 sequence (chain, as listed by the source limits assumed): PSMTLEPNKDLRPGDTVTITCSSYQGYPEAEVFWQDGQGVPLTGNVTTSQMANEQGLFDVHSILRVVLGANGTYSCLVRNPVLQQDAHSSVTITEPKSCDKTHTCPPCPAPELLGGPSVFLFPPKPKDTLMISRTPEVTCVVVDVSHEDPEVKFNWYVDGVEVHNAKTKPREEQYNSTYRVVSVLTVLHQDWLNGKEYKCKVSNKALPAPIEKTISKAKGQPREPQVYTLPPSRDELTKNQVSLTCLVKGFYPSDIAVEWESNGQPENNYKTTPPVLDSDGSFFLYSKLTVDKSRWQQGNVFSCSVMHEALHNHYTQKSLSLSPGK

[3] = target: T4, human CD276 on the surface of tumor cells (human, UniProt Q5ZPR3 29-534); experiment: flow cytometry on human renal cancer cells A498
T4 construct: whole, on cells; Endogenous expression on human tumor cell lines; also called CD276 on A498 cells
T4 sequence (looked up): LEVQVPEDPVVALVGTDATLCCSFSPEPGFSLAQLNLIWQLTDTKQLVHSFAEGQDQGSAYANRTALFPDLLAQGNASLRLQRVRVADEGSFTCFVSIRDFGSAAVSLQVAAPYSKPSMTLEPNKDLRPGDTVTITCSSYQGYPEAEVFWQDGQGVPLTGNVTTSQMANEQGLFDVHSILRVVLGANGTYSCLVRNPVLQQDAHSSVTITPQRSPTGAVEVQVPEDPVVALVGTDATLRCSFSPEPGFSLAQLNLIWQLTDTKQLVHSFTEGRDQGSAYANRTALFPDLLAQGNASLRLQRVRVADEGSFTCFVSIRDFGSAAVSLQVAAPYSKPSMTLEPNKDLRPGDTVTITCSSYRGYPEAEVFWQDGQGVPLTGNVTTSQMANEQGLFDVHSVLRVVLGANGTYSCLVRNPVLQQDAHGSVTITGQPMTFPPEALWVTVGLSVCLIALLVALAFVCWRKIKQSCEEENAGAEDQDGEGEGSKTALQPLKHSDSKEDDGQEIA
Procedure: In this experiment, human renal cancer cells A498 were used as the target cells. […] The cells were washed twice with PBS to remove those secondary antibody unbinding to the cells and then resuspended in 100 μL PBS.

[4] = target: T5, crab-eating macaque CD276-ECD (crab-eating macaque, UniProt Q5ZPR3 217-452 (human entry)); experiment: indirect ELISA, plate coated with crab-eating macaque CD276-ECD
T5 construct: Purchased from Acro BIOSYSTEMS; also called crab-eating macaque CD276-ECD protein; crab-eating macaque CD276-ECD antigen
T5 chain: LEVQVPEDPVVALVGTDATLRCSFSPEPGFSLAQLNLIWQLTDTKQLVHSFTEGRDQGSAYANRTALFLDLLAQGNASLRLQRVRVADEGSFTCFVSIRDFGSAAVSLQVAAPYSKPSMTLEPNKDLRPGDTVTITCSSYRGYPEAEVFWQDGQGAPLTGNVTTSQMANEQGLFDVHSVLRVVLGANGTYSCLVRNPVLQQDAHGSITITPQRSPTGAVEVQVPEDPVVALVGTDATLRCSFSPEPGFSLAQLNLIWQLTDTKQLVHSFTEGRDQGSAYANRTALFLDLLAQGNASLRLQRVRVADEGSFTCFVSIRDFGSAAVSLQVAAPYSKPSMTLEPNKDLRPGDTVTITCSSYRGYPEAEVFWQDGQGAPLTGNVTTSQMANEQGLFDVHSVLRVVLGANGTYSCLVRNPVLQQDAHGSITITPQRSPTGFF
Procedure: (§1) The specific method was as follows: The plates were pre-coated with crab-eating macaque and mouse CD276-ECD proteins diluted to 2 μg/mL in the coating solution (50 mM carbonate coating buffer, pH 9.6) and incubated at 4° C. overnight. The plates were then blocked with 5% skim milk powder at 37° C. for 2 hours. Afterward, the plates were washed 3 times with PBST, and the to-be-tested antibody, diluted in 1% BSA-PBST at various gradients, was added to the blocked plates at 100 μL per well. The plates were incubated at 37° C. for 1 hour. After washing the plates 3 times with PBST, HRP-conjugated goat anti-mouse IgG secondary antibody (purchased from Millipore) was added, and the plates were incubated at 37° C. for 30 minutes. After 3 more washes with PBST, residual droplets were removed by blotting on absorbent paper. Then, 100 μL of TMB substrate (purchased from KPL) was added to each well, and the plates were incubated at room temperature (20±5° C.) in the dark for 5 minutes. Finally, 50 μL of 2 M H2SO4 was added to each well to terminate the substrate reaction, and the OD value at 450 nm was read using a microplate reader to analyze the binding ability of the to-be-tested antibody to the target antigens, i.e., crab-eating macaque and mouse CD276-ECD proteins.

mouse CD276-ECD = target: T6, mouse CD276-ECD (mouse, UniProt Q8VE98 29-244); experiment: indirect ELISA, plate coated with 2 µg/mL mouse CD276-ECD
T6 construct: Purchased from Acro BIOSYSTEMS; also called mouse CD276-ECD protein
T6 sequence: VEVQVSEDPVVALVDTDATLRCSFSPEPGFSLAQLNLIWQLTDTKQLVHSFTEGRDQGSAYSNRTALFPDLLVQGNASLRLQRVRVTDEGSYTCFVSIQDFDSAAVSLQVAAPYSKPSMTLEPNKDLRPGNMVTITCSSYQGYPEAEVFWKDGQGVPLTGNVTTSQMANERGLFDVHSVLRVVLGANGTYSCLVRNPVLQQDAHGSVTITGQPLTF
Procedure: as §1

[5] = target: T7, peptide 1-5, bio-PSMT AEPNKD LRPGDTVTI (145-164); experiment: ELISA on biotin-labeled alanine-scan peptides
T7 construct: Alanine-scan variant of peptide 1
T7 peptide: Biotin-PSMTAEPNKDLRPGDTVTI

[6] = target: T8, peptide 1-8, bio-PSMTLEP AKD LRPGDTVTI (145-164); experiment: ELISA on biotin-labeled alanine-scan peptides
T8 construct: Alanine-scan variant of peptide 1
T8 peptide: Biotin-PSMTLEPAKDLRPGDTVTI

[7] = target: T9, peptide 1-9, bio-PSMTLEPN AD LRPGDTVTI (145-164); experiment: ELISA on biotin-labeled alanine-scan peptides
T9 construct: Alanine-scan variant of peptide 1
T9 peptide: Biotin-PSMTLEPNADLRPGDTVTI

[8] = target: T10, peptide 1-17, bio-PSMTLEPNKD LRPGDT ATI (145-164); experiment: ELISA on biotin-labeled alanine-scan peptides
T10 construct: Alanine-scan variant of peptide 1
T10 peptide: Biotin-PSMTLEPNKDLRPGDTATI

[9] = target: T11, peptide 1-4, bio-PSM ALEPNKD LRPGDTVTI (145-164); experiment: ELISA on biotin-labeled alanine-scan peptides
T11 construct: Alanine-scan variant of peptide 1
T11 peptide: Biotin-PSMALEPNKDLRPGDTVTI

[10] = target: T12, peptide 1-18, bio-PSMTLEPNKD LRPGDTV AI (145-164); experiment: ELISA on biotin-labeled alanine-scan peptides
T12 construct: Alanine-scan variant of peptide 1
T12 peptide: Biotin-PSMTLEPNKDLRPGDTVAI

[11] = target: T13, peptide 1-16, bio-PSMTLEPNKD LRPGD AVTI (145-164); experiment: ELISA on biotin-labeled alanine-scan peptides
T13 construct: Alanine-scan variant of peptide 1
T13 peptide: Biotin-PSMTLEPNKDLRPGDAVTI

[12] = target: T14, peptide 1-19, bio-PSMTLEPNKD LRPGDTVT A (145-164); experiment: ELISA on biotin-labeled alanine-scan peptides
T14 construct: Alanine-scan variant of peptide 1
T14 peptide: Biotin-PSMTLEPNKDLRPGDTVTA

[13] = target: T15, peptide 1-2, bio-P AMTLEPNKD LRPGDTVTI (145-164); experiment: ELISA on biotin-labeled alanine-scan peptides
T15 construct: Alanine-scan variant of peptide 1
T15 peptide: Biotin-PAMTLEPNKDLRPGDTVTI

[14] = target: T16, peptide 1-1, bio-ASMTLEPNKD LRPGDTVTI (145-164); experiment: ELISA on biotin-labeled alanine-scan peptides
T16 construct: Alanine-scan variant of peptide 1
T16 peptide: Biotin-ASMTLEPNKDLRPGDTVTI

[15] = target: T17, peptide 1-3, bio-PS ATLEPNKD LRPGDTVTI (145-164); experiment: ELISA on biotin-labeled alanine-scan peptides
T17 construct: Alanine-scan variant of peptide 1
T17 peptide: Biotin-PSATLEPNKDLRPGDTVTI

[16] = target: T18, peptide 1-13, bio-PSMTLEPNKD LR AGDTVTI (145-164); experiment: ELISA on biotin-labeled alanine-scan peptides
T18 construct: Alanine-scan variant of peptide 1
T18 peptide: Biotin-PSMTLEPNKDLRAGDTVTI

[17] = target: T19, peptide 1-6, bio-PSMTL APNKD LRPGDTVTI (145-164); experiment: ELISA on biotin-labeled alanine-scan peptides
T19 construct: Alanine-scan variant of peptide 1
T19 peptide: Biotin-PSMTLAPNKDLRPGDTVTI

Binder | EC50 [1] | binding result [2] | binding result (C2-type 1-Fc) | EC50 [3] | EC50 [4] | binding result (mouse CD276-ECD) | binding result [5] | binding result [6] | binding result [7] | binding result [8] | binding result [9] | binding result [10] | binding result [11] | binding result [12] | binding result [13] | binding result [14] | binding result [15] | binding result [16] | binding result [17]
humanized antibody hu147 (antibody, Human IgG1 / kappa; also called hul47) heavy: not shown light: EIVMTQSPPTLSLSPGERVTLSCRASENVGTYVSWYQQKPGQAPRLLIYGASNRYTGIPARFSGSGSGTDFTLTISSLQPEDFAVYYCGQRYSYPFTFGGGTKLEIKRTVAAPSVFIFPPSDEQLKSGTASVVCLLNNFYPREAKVQWKVDNALQSGNSQESVTEQDSKDSTYSLSSTLTLSKADYEKHKVYACEVTHQGLSSPVTKSFNRGEC | 0.0067 µg/mL and 0.04 nM | no binding |  |  |  |  |  |  |  |  |  |  |  |  |  |  |  |  | 
Fc-mutated humanized antibody hu147mu (antibody, human IgG1, kappa, about 150 kDa; also called hul47mu) heavy: not shown light: EIVMTQSPPTLSLSPGERVTLSCRASENVGTYVSWYQQKPGQAPRLLIYGASNRYTGIPARFSGSGSGTDFTLTISSLQPEDFAVYYCGQRYSYPFTFGGGTKLEIKRTVAAPSVFIFPPSDEQLKSGTASVVCLLNNFYPREAKVQWKVDNALQSGNSQESVTEQDSKDSTYSLSSTLTLSKADYEKHKVYACEVTHQGLSSPVTKSFNRGEC | 0.0068 µg/mL and 0.05 nM |  |  |  |  |  |  |  |  |  |  |  |  |  |  |  |  |  | 
murine monoclonal antibody 147# (antibody, V domains shown, Murine antibody purified from hybridoma supernatant by Protein G and detected with anti-mouse IgG) VH: QVQLKQSGIELVRPGASVKLSCKTSGYIFTADWIYWVKQRSGQGLEWIGRIYPGVDSTYYNEKFKDKAILTADKSSSTAYMQLNSLKSEDSAVYFCARGGEVRRDFYALDYWGQGTSVTVSS VL: NIVMTQSPESMSMSLGERVTLSCKASENVGTYVSWYQQKPEQSPKLLIYGASNRYTGVPARFTGSGSATDFTLTISSVQAEDLADYHCGQRYSYPFTFGSGTKLEIK | 0.0384 µg/mL and 0.26 nM |  | binds | 0.0592 µg/mL and 0.39 nM | 0.0302 µg/mL and 0.2 nM | no binding | binds | binds | binds | binds | binds | binds | binds | binds | binds | binds | binds | binds | binds

Source: patent publication US20250368740A1 (SHENZHEN BAISHITONG TECHNOLOGY DEVELOPMENT, published 2025)
